Measurements published in PMC6755802 (2019).

Target: T1, IL-2Rβ ectodomain (SPR, Figure 4A) (human, UniProt P14784 27-240)
T1 chain: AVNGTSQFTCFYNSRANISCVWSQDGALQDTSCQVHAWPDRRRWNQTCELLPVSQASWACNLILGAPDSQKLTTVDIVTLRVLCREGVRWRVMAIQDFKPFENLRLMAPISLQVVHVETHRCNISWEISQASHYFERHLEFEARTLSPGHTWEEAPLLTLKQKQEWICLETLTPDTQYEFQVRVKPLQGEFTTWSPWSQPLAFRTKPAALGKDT
Test: SPR

Kd: 3.3 nM
B1: Super-2 (ligand)
chain: APTSSSTKKTQLQLEHLLLDLQMILNGINNYKNPKLTRMLTFKFYMPKKATELKHLQCLEEELKPLEEVLNLAQSKNFHFDPRDVVSNINVFVLELKGSETTFMCEYADETATIVEFLNRWITFCQSIISTLT
